Key:
gp120 CAAN = gp120 CAAN (HIV (CAAN)); experiment: single-point ELISA at EC50 conc. of A-1
gp120 SHIV SF162 P3 = gp120 SHIV SF162 P3 (SHIV SF162 P3); experiment: single-point ELISA at EC50 conc. of A-1
gp120 Bal = gp120 Bal (HIV (Bal)); experiment: single-point ELISA at EC50 conc. of A-1
BSA = BSA (UniProt P02769 25-607); experiment: single-point ELISA, BSA control

Binder | ELISA A450 (gp120 CAAN) | ELISA A450 (gp120 SHIV SF162 P3) | ELISA A450 (gp120 Bal) | ELISA A450 (BSA)
1.1.9-1 (antibody, human IgG1, kappa) heavy: QVQLLQSGAAVTKPGASVRVSCEASGYNIRDYFIHWWRQAPGQGLQWVGWINPKTGQPNNPRQFQGRVSLTRHASWDFDTFSFYMDLKALRSDDTAVYFCARQRSDYWDFDVWGSGTQVTVSSASTKGPSVFPLAPSSKSTSGGTAALGCLVKDYFPEPVTVSWNSGALTSGVHTFPAVLQSSGLYSLSSVVTVPSSSLGTQTYICNVNHKPSNTKVDKKVEPKSCDKTHTCPPCPAPELLAGPDVFLFPPKPKDTLMISRTPEVTCVVVDVSHEDPEVKFNWYVDGVEVHNAKTKPREEQYNSTYRVVSVLTVLHQDWLNGKEYKCKVSNKALPLPEEKTISKAKGQPREPQVYTLPPSREEMTKNQVSLTCLVKGFYPSDIAVEWESNGQPENNYKTTPPVLDSDGSFFLYSKLTVDKSRWQQGNVFSCSVLHEALHSHYTQKSLSLSPGK light: DIQMTQSPSSLSASVGDTVTITCQANGYLNWYQQRRGKAPKLLIYDGSKLETGVPSRFSGRRWGQEYNLTINNLQPEDIATYFCQVYEFVVPGTRLDLKRTVAAPSVFIFPPSDEQLKSGTASVVCLLNNFYPREAKVQWKVDNALQSGNSQESVTEQDSKDSTYSLSSTLTLSKADYEKHKVYACEVTHQGLSSPVTKSFNRGEC | 0.93 A450 | 1.09 A450 | 0.98 A450 | 0.07 A450
1.1.12-1 (antibody, human IgG1, kappa) heavy: QVQLLQSGAAVTKPGASVRVSCEASGYNIRDYFIHWWRQAPGQGLQWVGWINPKTGQPNNPRQFQGRVSLTRHASWDFDTFSFYMDLKALRSDDTAVYFCARQRSDYWDFDVWGSGTQVTVSSASTKGPSVFPLAPSSKSTSGGTAALGCLVKDYFPEPVTVSWNSGALTSGVHTFPAVLQSSGLYSLSSVVTVPSSSLGTQTYICNVNHKPSNTKVDKKVEPKSCDKTHTCPPCPAPELLAGPDVFLFPPKPKDTLMISRTPEVTCVVVDVSHEDPEVKFNWYVDGVEVHNAKTKPREEQYNSTYRVVSVLTVLHQDWLNGKEYKCKVSNKALPLPEEKTISKAKGQPREPQVYTLPPSREEMTKNQVSLTCLVKGFYPSDIAVEWESNGQPENNYKTTPPVLDSDGSFFLYSKLTVDKSRWQQGNVFSCSVLHEALHSHYTQKSLSLSPGK light: DIQMTQSPSSLSASVGDTVTITCQANGYLNWYQQRRGKAPKLLIYDGSKLERGVPSRFSGRRWGQEYNLTISSLQPEDIATYFCQVYEFVVPGTRLDLKRTVAAPSVFIFPPSDEQLKSGTASVVCLLNNFYPREAKVQWKVDNALQSGNSQESVTEQDSKDSTYSLSSTLTLSKADYEKHKVYACEVTHQGLSSPVTKSFNRGEC | 1.02 A450 | 1.13 A450 | 1.05 A450 | 0.06 A450
1.1.13-1 (antibody, human IgG1, kappa) heavy: QVQLLQSGAAVTKPGASVRVSCEASGYNIRDYFIHWWRQAPGQGLQWVGWINPKTGQPNNPRQFQGRVSLTRHASWDFDTFSFYMDLKALRSDDTAVYFCARQRSDYWDFDVWGSGTQVTVSSASTKGPSVFPLAPSSKSTSGGTAALGCLVKDYFPEPVTVSWNSGALTSGVHTFPAVLQSSGLYSLSSVVTVPSSSLGTQTYICNVNHKPSNTKVDKKVEPKSCDKTHTCPPCPAPELLAGPDVFLFPPKPKDTLMISRTPEVTCVVVDVSHEDPEVKFNWYVDGVEVHNAKTKPREEQYNSTYRVVSVLTVLHQDWLNGKEYKCKVSNKALPLPEEKTISKAKGQPREPQVYTLPPSREEMTKNQVSLTCLVKGFYPSDIAVEWESNGQPENNYKTTPPVLDSDGSFFLYSKLTVDKSRWQQGNVFSCSVLHEALHSHYTQKSLSLSPGK light: DIQMTQSPSSLSASVGDTVTITCQANGYLNWYQQRRGKAPKLLIYDGSKLERGVPSRFSGSRWGQEYTLTISSLQPEDIATYFCQVYEFVVPGTRLDLKRTVAAPSVFIFPPSDEQLKSGTASVVCLLNNFYPREAKVQWKVDNALQSGNSQESVTEQDSKDSTYSLSSTLTLSKADYEKHKVYACEVTHQGLSSPVTKSFNRGEC | 1.11 A450 | 0.97 A450 | 0.94 A450 | 0.06 A450
1.1.15-1 (antibody, human IgG1, kappa) heavy: QVQLLQSGAAVTKPGASVRVSCEASGYNIRDYFIHWWRQAPGQGLQWVGWINPKTGQPNNPRQFQGRVSLTRHASWDFDTFSFYMDLKALRSDDTAVYFCARQRSDYWDFDVWGSGTQVTVSSASTKGPSVFPLAPSSKSTSGGTAALGCLVKDYFPEPVTVSWNSGALTSGVHTFPAVLQSSGLYSLSSVVTVPSSSLGTQTYICNVNHKPSNTKVDKKVEPKSCDKTHTCPPCPAPELLAGPDVFLFPPKPKDTLMISRTPEVTCVVVDVSHEDPEVKFNWYVDGVEVHNAKTKPREEQYNSTYRVVSVLTVLHQDWLNGKEYKCKVSNKALPLPEEKTISKAKGQPREPQVYTLPPSREEMTKNQVSLTCLVKGFYPSDIAVEWESNGQPENNYKTTPPVLDSDGSFFLYSKLTVDKSRWQQGNVFSCSVLHEALHSHYTQKSLSLSPGK light: DIQMTQSPSSLSASVGDTVTITCQANGYLNWYQQRRGKAPKLLIYDGSKLERGVPSRFSGRRWGQEYNLTINNLQPEDIATYFCQVYEFFVPGTRLDLKRTVAAPSVFIFPPSDEQLKSGTASVVCLLNNFYPREAKVQWKVDNALQSGNSQESVTEQDSKDSTYSLSSTLTLSKADYEKHKVYACEVTHQGLSSPVTKSFNRGEC | 0.79 A450 | 0.79 A450 | 0.93 A450 | 0.06 A450
1.1.11-1 (antibody, human IgG1, kappa) heavy: QVQLLQSGAAVTKPGASVRVSCEASGYNIRDYFIHWWRQAPGQGLQWVGWINPKTGQPNNPRQFQGRVSLTRHASWDFDTFSFYMDLKALRSDDTAVYFCARQRSDYWDFDVWGSGTQVTVSSASTKGPSVFPLAPSSKSTSGGTAALGCLVKDYFPEPVTVSWNSGALTSGVHTFPAVLQSSGLYSLSSVVTVPSSSLGTQTYICNVNHKPSNTKVDKKVEPKSCDKTHTCPPCPAPELLAGPDVFLFPPKPKDTLMISRTPEVTCVVVDVSHEDPEVKFNWYVDGVEVHNAKTKPREEQYNSTYRVVSVLTVLHQDWLNGKEYKCKVSNKALPLPEEKTISKAKGQPREPQVYTLPPSREEMTKNQVSLTCLVKGFYPSDIAVEWESNGQPENNYKTTPPVLDSDGSFFLYSKLTVDKSRWQQGNVFSCSVLHEALHSHYTQKSLSLSPGK light: DIQMTQSPSSLSASVGDTVTITCQANGYLNWYQQRRGKAPKLLIYDGSKLERGVPSRFSGSRWGQEYTLTINNLQPEDIATYFCQVYEFVVPGTRLDLKRTVAAPSVFIFPPSDEQLKSGTASVVCLLNNFYPREAKVQWKVDNALQSGNSQESVTEQDSKDSTYSLSSTLTLSKADYEKHKVYACEVTHQGLSSPVTKSFNRGEC | 1.03 A450 | 0.93 A450 | 0.92 A450 | 0.06 A450
1.1.10-1 (antibody, human IgG1, kappa) heavy: QVQLLQSGAAVTKPGASVRVSCEASGYNIRDYFIHWWRQAPGQGLQWVGWINPKTGQPNNPRQFQGRVSLTRHASWDFDTFSFYMDLKALRSDDTAVYFCARQRSDYWDFDVWGSGTQVTVSSASTKGPSVFPLAPSSKSTSGGTAALGCLVKDYFPEPVTVSWNSGALTSGVHTFPAVLQSSGLYSLSSVVTVPSSSLGTQTYICNVNHKPSNTKVDKKVEPKSCDKTHTCPPCPAPELLAGPDVFLFPPKPKDTLMISRTPEVTCVVVDVSHEDPEVKFNWYVDGVEVHNAKTKPREEQYNSTYRVVSVLTVLHQDWLNGKEYKCKVSNKALPLPEEKTISKAKGQPREPQVYTLPPSREEMTKNQVSLTCLVKGFYPSDIAVEWESNGQPENNYKTTPPVLDSDGSFFLYSKLTVDKSRWQQGNVFSCSVLHEALHSHYTQKSLSLSPGK light: DIQMTQSPSSLSASVGDTVTITCQANGYLNWYQQRRGKAPKLLIYDGSKLERGVPSRFSGRRWGQEYTLTINNLQPEDIATYFCQVYEFVVPGTRLDLKRTVAAPSVFIFPPSDEQLKSGTASVVCLLNNFYPREAKVQWKVDNALQSGNSQESVTEQDSKDSTYSLSSTLTLSKADYEKHKVYACEVTHQGLSSPVTKSFNRGEC | 1.1 A450 | 1.02 A450 | 0.94 A450 | 0.06 A450
1.1.16-1 (antibody, human IgG1, kappa) heavy: QVQLLQSGAAVTKPGASVRVSCEASGYNIRDYFIHWWRQAPGQGLQWVGWINPKTGQPNNPRQFQGRVSLTRHASWDFDTFSFYMDLKALRSDDTAVYFCARQRSDYWDFDVWGSGTQVTVSSASTKGPSVFPLAPSSKSTSGGTAALGCLVKDYFPEPVTVSWNSGALTSGVHTFPAVLQSSGLYSLSSVVTVPSSSLGTQTYICNVNHKPSNTKVDKKVEPKSCDKTHTCPPCPAPELLAGPDVFLFPPKPKDTLMISRTPEVTCVVVDVSHEDPEVKFNWYVDGVEVHNAKTKPREEQYNSTYRVVSVLTVLHQDWLNGKEYKCKVSNKALPLPEEKTISKAKGQPREPQVYTLPPSREEMTKNQVSLTCLVKGFYPSDIAVEWESNGQPENNYKTTPPVLDSDGSFFLYSKLTVDKSRWQQGNVFSCSVLHEALHSHYTQKSLSLSPGK light: DIQMTQSPSSLSASVGDTVTITCQANGYLNWYQQRRGKAPKLLIYDGSKLERGVPSRFSGRRWGQEYNLTINNLQPEDIATYFCQVYEFVGPGTRLDLKRTVAAPSVFIFPPSDEQLKSGTASVVCLLNNFYPREAKVQWKVDNALQSGNSQESVTEQDSKDSTYSLSSTLTLSKADYEKHKVYACEVTHQGLSSPVTKSFNRGEC | 0.99 A450 | 1.05 A450 | 1.06 A450 | 0.06 A450
1.1.17-1 (antibody, human IgG1, kappa) heavy: QVQLLQSGAAVTKPGASVRVSCEASGYNIRDYFIHWWRQAPGQGLQWVGWINPKTGQPNNPRQFQGRVSLTRHASWDFDTFSFYMDLKALRSDDTAVYFCARQRSDYWDFDVWGSGTQVTVSSASTKGPSVFPLAPSSKSTSGGTAALGCLVKDYFPEPVTVSWNSGALTSGVHTFPAVLQSSGLYSLSSVVTVPSSSLGTQTYICNVNHKPSNTKVDKKVEPKSCDKTHTCPPCPAPELLAGPDVFLFPPKPKDTLMISRTPEVTCVVVDVSHEDPEVKFNWYVDGVEVHNAKTKPREEQYNSTYRVVSVLTVLHQDWLNGKEYKCKVSNKALPLPEEKTISKAKGQPREPQVYTLPPSREEMTKNQVSLTCLVKGFYPSDIAVEWESNGQPENNYKTTPPVLDSDGSFFLYSKLTVDKSRWQQGNVFSCSVLHEALHSHYTQKSLSLSPGK light: DIQMTQSPSSLSASVGDTVTITCQANGYLNWYQQRRGKAPKLLIYDGSKLERGVPSRFSGRRWGQEYNLTINNLQPEDIATYFCQVYEFFGPGTRLDLKRTVAAPSVFIFPPSDEQLKSGTASVVCLLNNFYPREAKVQWKVDNALQSGNSQESVTEQDSKDSTYSLSSTLTLSKADYEKHKVYACEVTHQGLSSPVTKSFNRGEC | 0.9 A450 | 1.07 A450 | 1.02 A450 | 0.06 A450

Source: patent publication US20240034774A1 (Gilead, published 2024)
